From paper PMC5866560 (Proceedings of the National Academy of Sciences of the …, 2018)

Target: T1, recombinant Bri2 protein covering residues 113 to 231 comprising the BRICHOS domain (human, UniProt Q9Y287-1 113-231)
T1 sequence (looked up): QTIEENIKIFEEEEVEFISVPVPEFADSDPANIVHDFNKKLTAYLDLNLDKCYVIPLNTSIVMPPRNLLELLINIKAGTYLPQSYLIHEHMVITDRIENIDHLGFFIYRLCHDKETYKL
Assay: immuno-electron microscopy

B1: islet amyloid polypeptide IAPP 1–37 (peptide, UniProt P10997 34-70, looked up)
peptide: KCNTATCATQRLANFLVHSSNNFGAILSSTNVGSNTY
binding result: binds
